Test results published in paper PMC12639696, “Death-associated protein kinase 1-dependent SENP1 degradation increases tau SUMOylation and leads to cognitive dysfunction in a mouse model for tauopathy” (Molecular Neurodegeneration, 2025).

Molecular target: T1, His-DAPK1 (848–1288 aa) (UniProt P53355 848-1288)
T1 construct: source: purified recombinant protein
T1 sequence (looked up): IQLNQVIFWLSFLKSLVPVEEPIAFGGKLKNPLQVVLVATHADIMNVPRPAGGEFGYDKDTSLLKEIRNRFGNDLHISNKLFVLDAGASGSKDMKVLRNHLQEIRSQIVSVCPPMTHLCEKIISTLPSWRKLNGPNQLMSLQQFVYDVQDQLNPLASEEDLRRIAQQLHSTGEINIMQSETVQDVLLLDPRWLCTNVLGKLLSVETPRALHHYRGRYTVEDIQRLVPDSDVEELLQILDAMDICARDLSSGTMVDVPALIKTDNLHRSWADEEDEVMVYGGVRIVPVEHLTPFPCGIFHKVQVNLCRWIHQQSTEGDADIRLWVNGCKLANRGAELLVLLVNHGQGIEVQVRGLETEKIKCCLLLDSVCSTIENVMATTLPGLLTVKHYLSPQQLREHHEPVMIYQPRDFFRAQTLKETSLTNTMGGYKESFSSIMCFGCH
Assay: pull-down; purified His-DAPK1 (848–1288 aa) incubated with GST or GST-SENP1 proteins; immunoblot with an anti-His antibody
Settings: both partners purified

binding result: binds
B1: GST-SENP1 (1-200 aa) (domain or fragment, UniProt Q9P0U3 1-200, looked up)
chain: MDDIADRMRMDAGEVTLVNHNSVFKTHLLPQTGFPEDQLSLSDQQILSSRQGHLDRSFTCSTRSAAYNPSYYSDNPSSDSFLGSGDLRTFGQSANGQWRNSTPSSSSSLQKSRNSRSLYLETRKTSSGLSNSFAGKSNHHCHVSAYEKSFPIKPVPSPSWSGSCRRSLLSPKKTQRRHVSTAEETVQEEEREIYRQLLQM
notes: Sentrin-specific protease 1 (SENP1), N-terminal region, residues 1-200; also called N-terminal region (1-200 aa) of SENP1; source: E. coli, purified GST fusion protein
